Test results as given in patent publication US20060257938A1, “Method of screening for drugs that block ligand binding to a lipid binding protein” (priority 2005, published 2006).

Columns and labels:
Type in all cases: binding
Settings in all cases: response relative to ADIFAB2
[1] = Probe fluorescence ratio response to arachidonic acid relative to ADIFAB2
Outline: (§1)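 Each fatty acid's response was expressed relative to ADIFAB2, the rI-FABP-L72A probe, as ΔR/ΔRreference. ΔR is the change in the background-corrected two-wavelength intensity ratio R=Fλ1/Fλ2 from its analyte-free baseline R0. Emission was read near about 420-480 nm for unbound and about 495-580 nm for FFA-bound probe.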

[2] = Probe fluorescence ratio response to linolenic acid relative to ADIFAB2
Outline: as §1

[3] = Probe fluorescence ratio response to linoleic acid relative to ADIFAB2
Outline: as §1

[4] = Probe fluorescence ratio response to oleic acid relative to ADIFAB2
Outline: as §1

[5] = Probe fluorescence ratio response to palmitic acid relative to ADIFAB2
Outline: as §1

B1: 82A, 72A (protein, listed as Rattus norvegicus)
chain: AFDGTWKVDRNENYEKFMEKMGINVVKRKLGAHDNLKLTITQEGNKFTVKESSNFRNIDVVFELGVDFAYSAADGTELTGTATMEGNKLVGKFKRVDNGKELIAVREISGNELIQTYTYEGVEAKRIFKKE
modifications: PEPTIDE (1)...(131) wild-type rat intestinal fatty acid binding protein
For B1, the “DR/DR AA” value ([1]; Arachidonic acid) was 1.55, the “DR/DR LNA” value [2] was 1.56 and the “DR/DR LA” value [3] was 1.67. The “DR/DR OA” value [4] was 1.53 and the “DR/DR PA” value [5] was 0.84.

B2: 82I3, 72A (protein, listed as Rattus norvegicus)
chain: AFDGTWKVDRNENYEKFMEKMGINVVKRKLGAHDNLKLTITQEGNKFTVKESSNFRNIDVVFELGVDFAYSAADGTELTGTITMEGNKLVGKFKRVDNGKELIAVREISGNELIQTYTYEGVEAKRIFKKE
modifications: PEPTIDE (1)...(131) wild-type rat intestinal fatty acid binding protein
In the case of B2, the “DR/DR AA” value ([1]; Arachidonic acid) is reported as 0.67, the “DR/DR LNA” value [2] is reported as 0.45 and the “DR/DR LA” value [3] is reported as 0.52. The “DR/DR OA” value [4] was 0.54 and the “DR/DR PA” value [5] was 0.36.

B3: 82A1, 72A (protein, listed as Rattus norvegicus)
chain: AFDGTWKVDRNENYEKFMEKMGINVVKRKLGAHDNLKLTITQEGNKFTVKESSNFRNIDVVFELGVDFAYSAADGTELTGTATMEGNKLVGKFKRVDNGKELIAVREISGNELIQTYTYEGVEAKRIFKKE
modifications: PEPTIDE (1)...(131) wild-type rat intestinal fatty acid binding protein
With B3 the “DR/DR AA” value ([1]; Arachidonic acid) was 0.73, the “DR/DR LNA” value [2] was 0.66 and the “DR/DR LA” value [3] was 0.78. The “DR/DR OA” value [4] was 0.80 and the “DR/DR PA” value [5] was 0.26.

B4: 104I1, 72A (protein, listed as Rattus norvegicus)
chain: AFDGTWKVDRNENYEKFMEKMGINVVKRKLGAHDNLKLTITQEGNKFTVKESSNFRNIDVVFELGVDFAYSAADGTELTGTWTMEGNKLVGKFKRVDNGKELIIVREISGNELIQTYTYEGVEAKRIFKKE
modifications: PEPTIDE (1)...(131) wild-type rat intestinal fatty acid binding protein
For B4, the “DR/DR AA” value ([1]; arachidonic acid) was 0.28, the “DR/DR LNA” value [2] was 0.30 and the “DR/DR LA” value [3] was 0.30. The “DR/DR OA” value [4] was 0.31 and the “DR/DR PA” value [5] was 0.23.

B5: 82M1, 72A (protein, listed as Rattus norvegicus)
chain: AFDGTWKVDRNENYEKFMEKMGINVVKRKLGAHDNLKLTITQEGNKFTVKESSNFRNIDVVFELGVDFAYSAADGTELTGTMTMEGNKLVGKFKRVDNGKELIAVREISGNELIQTYTYEGVEAKRIFKKE
modifications: PEPTIDE (1)...(131) wild-type rat intestinal fatty acid binding protein
In the case of B5, the “DR/DR AA” value ([1]; Arachidonic acid) is reported as 0.97, the “DR/DR LNA” value [2] is reported as 0.75 and the “DR/DR LA” value [3] is reported as 0.94. The “DR/DR OA” value [4] was 0.92 and the “DR/DR PA” value [5] was 0.54.

B6: 82F1, 72A (protein, listed as Rattus norvegicus)
chain: AFDGTWKVDRNENYEKFMEKMGINVVKRKLGAHDNLKLTITQEGNKFTVKESSNFRNIDVVFELGVDFAYSAADGTELTGTFTMEGNKLVGKFKRVDNGKELIAVREISGNELIQTYTYEGVEAKRIFKKE
modifications: PEPTIDE (1)...(131) wild-type rat intestinal fatty acid binding protein
With B6 the “DR/DR AA” value ([1]; Arachidonic acid) was 0.68, the “DR/DR LNA” value [2] was 0.76 and the “DR/DR LA” value [3] was 1.08. The “DR/DR OA” value [4] was 0.78 and the “DR/DR PA” value [5] was 0.41.
